Test results from EP4713370A2 (dated 2026).
Blank lines part the entries; values can stand above or below the binder they belong to.

Experiments:
[1] = target: T1, CD79b on target B cell lines (Ramos (CD79b+) cells; Daudi cells) (UniProt P40259 29-229, limits assumed); assay: flow cytometry on Ramos cells, anti-human IgG Fc PE
T1 construct: whole, on cells; On cells CD79b stands in the B cell receptor complex with CD79a; also called Ramos (CD79+) cells; CD79b expression cells
T1 sequence (looked up): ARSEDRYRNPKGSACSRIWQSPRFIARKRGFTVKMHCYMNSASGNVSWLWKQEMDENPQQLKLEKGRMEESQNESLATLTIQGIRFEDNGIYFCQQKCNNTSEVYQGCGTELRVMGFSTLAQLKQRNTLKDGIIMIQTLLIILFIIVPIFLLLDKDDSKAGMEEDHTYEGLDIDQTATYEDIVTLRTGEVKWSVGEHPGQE

[2] = target: T2, human NKp46 expressed on cells (primary human NK cells; CHOK1-hNKp46 cells) (human, UniProt O76036 22-304); assay: flow cytometry on CHOK1-hNKp46 cells, anti-human IgG Fc PE
T2 construct: whole, on cells; also called cell surface expressed NKp46; NCR1

[3] = target: T1, CD79b on target B cell lines (Ramos …); assay: flow cytometry on Ramos cells, anti-human IgG PE
[4] = target: T2, human NKp46 expressed on cells (primary …); assay: flow cytometry on purified CD56+ human NK cells, anti-human IgG PE
[5] = target: T3, Recombinant human NKp46, His Tag (human NKp46 ECD antigen, aa. 22-254, his-tagged) (human, UniProt O76036 22-255); assay: ELISA on coated NKp46-His, and BLI with antibody on anti-human IgG Fc probe and 11 nM NKp46-His
T3 construct: also called NKp46 extracellular domain (ECD); Acrobiosystems #NC1-H52H4; not shown: His tag

[6] = target: T2, human NKp46 expressed on cells (primary …); assay: flow cytometry on primary human NK cells, rabbit IgG, anti-rabbit IgG FITC

T2 sequence (O76036 22-304): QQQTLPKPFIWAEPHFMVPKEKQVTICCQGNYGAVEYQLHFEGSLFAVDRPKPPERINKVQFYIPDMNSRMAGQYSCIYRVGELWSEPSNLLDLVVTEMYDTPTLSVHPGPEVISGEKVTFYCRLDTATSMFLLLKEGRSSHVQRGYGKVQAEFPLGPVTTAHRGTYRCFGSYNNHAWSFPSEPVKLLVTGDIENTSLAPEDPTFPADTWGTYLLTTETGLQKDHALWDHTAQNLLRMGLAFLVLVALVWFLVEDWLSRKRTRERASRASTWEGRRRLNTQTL
T3 sequence (O76036 other isoform, or with tags, fused parts or gaps): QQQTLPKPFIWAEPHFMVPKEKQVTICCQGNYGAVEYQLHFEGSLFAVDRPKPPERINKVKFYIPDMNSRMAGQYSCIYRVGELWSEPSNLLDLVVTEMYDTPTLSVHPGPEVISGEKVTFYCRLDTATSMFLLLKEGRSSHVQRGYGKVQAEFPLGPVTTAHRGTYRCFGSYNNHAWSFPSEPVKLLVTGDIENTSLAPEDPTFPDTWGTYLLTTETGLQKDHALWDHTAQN

binding result [1]: binds
binding result [2]: binds
B1: h44G2/h6-1 (LC) Fc-optimized (bispecific antibody, human IgG1, kappa)
heavy: EQQLVETGGGLIQPGGSLRLSCAASGFTINIDYWISWVRQAPGKGLEWIGIIDPGDGTTYFAIWVSGRFTISFDNSKNTVYLQMNSLRAEDTAVYFCVREFSASAYQYDLWGPGTLVTVSSASTKGPSVFPLAPSSKSTSGGTAALGCLVKDYFPEPVTVSWNSGALTSGVHTFPAVLQSSGLYSLSSVVTVPSSSLGTQTYICNVNHKPSNTKVDKKVEPKSCDKTHTCPPCPAPELLAGPSVFLFPPKPKDTLMISRTPEVTCVVVDVSHEDPEVKFNWYVDGVEVHNAKTKPREEQYNSTYRVVSVLTVLHQDWLNGKEYKCKVSNKALPLPEEKTISKAKGQPREPQVYTLPPSRDELTKNQVSLTCLVKGFYPSDIAVEWESNGQPENNYKTTPPVLDSDGSFFLYSKLTVDKSRWQQGNVFSCSVMHEALHNHYTQKSLSLSPGK
light: ELVMTQSPATLSVSPGERATLSCRASEDIENYLAWYQQKPGQPPRLLIYRASTLSSGVPARFSGSGSGTEFTLTISSLQSEDFAVYYCQQGYRNSNVDNPFGGGTKVEIKRTVAAPSVFIFPPSDEQLKSGTASVVCLLNNFYPREAKVQWKVDNALQSGNSQESVTEQDSKDSTYSLSSTLTLSKADYEKHKVYACEVTHQGLSSPVTKSFNRGECGGGGSGGGGSGGGGSDVQMTQSPSTLSASVGDRVTITCQASENIYSSLAWYQQKPGKPPKLLMYDVSDLASGVPSRFSGSGSGTEFTLTISSLQPDDFATYFCLGGYPSNNYRMAFGCGTKVEIKGGGGSGGGGSGGGGSGGGGSEQQLLESGGGLVQPGGSLRLSCAASGFSFSSSAWIVWVRQAPGKCLEWIGVINTVSVNAYYASWAKGRFTISKDSSKNTVYLQMNSLRAEDTAVYFCARNPYNSLRLWGPGTLVTVSS
notes: LC format, optimized Fc; also called humanized CD79b/NKp46 bispecific antibody; humanized NK cell engager

binding result [3]: binds
binding result [4]: binds
B2: ch44G2/ch6-1 Fc-silenced (bispecific antibody, human IgG1, kappa, L234A L235A)
heavy: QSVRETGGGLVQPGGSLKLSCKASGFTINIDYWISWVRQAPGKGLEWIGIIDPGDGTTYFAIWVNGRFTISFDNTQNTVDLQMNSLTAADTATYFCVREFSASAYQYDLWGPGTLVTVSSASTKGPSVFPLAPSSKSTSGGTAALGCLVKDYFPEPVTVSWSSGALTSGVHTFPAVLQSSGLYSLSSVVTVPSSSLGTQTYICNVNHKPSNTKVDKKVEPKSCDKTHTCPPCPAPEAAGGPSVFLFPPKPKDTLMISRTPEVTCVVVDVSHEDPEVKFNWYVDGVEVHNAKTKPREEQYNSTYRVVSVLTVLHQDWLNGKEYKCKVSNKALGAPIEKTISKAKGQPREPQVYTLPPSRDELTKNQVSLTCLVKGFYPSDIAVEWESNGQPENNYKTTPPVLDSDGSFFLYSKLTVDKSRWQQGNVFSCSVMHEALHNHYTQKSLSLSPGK
light: DLVMTQTPSSVSAAVGGTVSINCRASEDIENYLAWYQQKPGQPPKLLIYRASTLSSGVSSRFSGSGSGTEFTLTISGVQPDDAATYYCQQGYRNSNVDNPFGGGTEMVVKRTVAAPSVFIFPPSDEQLKSGTASVVCLLNNFYPREAKVQWKVDNALQSGNSQESVTEQDSKDSTYSLSSTLTLSKADYEKHKVYACEVTHQGLSSPVTKSFNRGECGGGGSGGGGSGGGGSGGGGSADVVMTQTPASVSEPVGGTITINCQASENIYSSLAWYQQKPGQPPKLLMYDVSDLASGVPSRFSGSGSGTEFALTISDVQPDDAATYFCLGGYPSNNYRMAFGGGTEVVVKGGGGSGGGGSGGGGSGGGGSQSLEESGGGLVQPEGSLTLTCTASGFSFSSSAWICWVRQAPGKGLEWIGCINTVSVNAYYASWAKGRFTISKTSSTTVTLQVTSLTAADTATHFCARNPYNSLRLWGPGTLVTVSS
notes: LC format, LALAPG silenced Fc; also called CD79b/NKp46 bispecific antibody; 44G2/6-1

binding result [1]: binds
binding result [2]: binds
B3: h44G2/h6-1 (HC) Fc-optimized (bispecific antibody, human IgG1, kappa)
heavy: EQQLVETGGGLIQPGGSLRLSCAASGFTINIDYWISWVRQAPGKGLEWIGIIDPGDGTTYFAIWVSGRFTISFDNSKNTVYLQMNSLRAEDTAVYFCVREFSASAYQYDLWGPGTLVTVSSASTKGPSVFPLAPSSKSTSGGTAALGCLVKDYFPEPVTVSWNSGALTSGVHTFPAVLQSSGLYSLSSVVTVPSSSLGTQTYICNVNHKPSNTKVDKKVEPKSCDKTHTCPPCPAPELLAGPSVFLFPPKPKDTLMISRTPEVTCVVVDVSHEDPEVKFNWYVDGVEVHNAKTKPREEQYNSTYRVVSVLTVLHQDWLNGKEYKCKVSNKALPLPEEKTISKAKGQPREPQVYTLPPSRDELTKNQVSLTCLVKGFYPSDIAVEWESNGQPENNYKTTPPVLDSDGSFFLYSKLTVDKSRWQQGNVFSCSVMHEALHNHYTQKSLSLSPGGGGGSGGGGSGGGGSDVQMTQSPSTLSASVGDRVTITCQASENIYSSLAWYQQKPGKPPKLLMYDVSDLASGVPSRFSGSGSGTEFTLTISSLQPDDFATYFCLGGYPSNNYRMAFGCGTKVEIKGGGGSGGGGSGGGGSGGGGSEQQLLESGGGLVQPGGSLRLSCAASGFSFSSSAWIVWVRQAPGKCLEWIGVINTVSVNAYYASWAKGRFTISKDSSKNTVYLQMNSLRAEDTAVYFCARNPYNSLRLWGPGTLVTVSS
light: ELVMTQSPATLSVSPGERATLSCRASEDIENYLAWYQQKPGQPPRLLIYRASTLSSGVPARFSGSGSGTEFTLTISSLQSEDFAVYYCQQGYRNSNVDNPFGGGTKVEIKRTVAAPSVFIFPPSDEQLKSGTASVVCLLNNFYPREAKVQWKVDNALQSGNSQESVTEQDSKDSTYSLSSTLTLSKADYEKHKVYACEVTHQGLSSPVTKSFNRGEC
notes: HC format, optimized Fc; also called humanized CD79b/NKp46 bispecific antibody; humanized NK cell engager

binding result [3]: binds
binding result [4]: binds
B4: ch44G2/ch5-13 Fc-silenced (bispecific antibody, human IgG1, kappa, L234A L235A)
heavy: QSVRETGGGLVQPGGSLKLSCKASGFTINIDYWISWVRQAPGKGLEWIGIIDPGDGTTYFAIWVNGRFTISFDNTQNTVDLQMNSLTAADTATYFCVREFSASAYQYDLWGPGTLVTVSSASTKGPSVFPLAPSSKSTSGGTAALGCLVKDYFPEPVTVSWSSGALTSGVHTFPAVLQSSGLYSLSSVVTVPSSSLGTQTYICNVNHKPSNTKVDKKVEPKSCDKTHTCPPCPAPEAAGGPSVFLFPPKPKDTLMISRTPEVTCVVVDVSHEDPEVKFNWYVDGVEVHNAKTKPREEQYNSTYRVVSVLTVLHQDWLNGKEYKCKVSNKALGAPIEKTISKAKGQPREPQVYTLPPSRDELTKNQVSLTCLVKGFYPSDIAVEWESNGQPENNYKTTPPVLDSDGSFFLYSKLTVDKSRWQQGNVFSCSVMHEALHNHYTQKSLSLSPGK
light: DLVMTQTPSSVSAAVGGTVSINCRASEDIENYLAWYQQKPGQPPKLLIYRASTLSSGVSSRFSGSGSGTEFTLTISGVQPDDAATYYCQQGYRNSNVDNPFGGGTEMVVKRTVAAPSVFIFPPSDEQLKSGTASVVCLLNNFYPREAKVQWKVDNALQSGNSQESVTEQDSKDSTYSLSSTLTLSKADYEKHKVYACEVTHQGLSSPVTKSFNRGECGGGGSGGGGSGGGGSGGGGSAYDMTQTPASVEVAVGGTVTIKCQASQSISTALAWYQQKPGQPPKLLIYKASTLASGVSSRFKGSGSGTQFTLTISGVEPADAATYYCQQGYSRSNVDNVFGGGTEVVVKGGGGSGGGGSGGGGSGGGGSQSVEESGGRLVTPGTPLTLTCTVSGFSLSSYHMSWVRQAPGKGLEWIGYILANTDSYYANWAKGRFTISKTSTTVDLKITSPTTEDTATYFCARYDNHDAAYSTLWGPGTLVTVSS
notes: LC format, LALAPG silenced Fc; also called CD79b/NKp46 bispecific antibody; 44G2/5-13

binding result [5]: binds
B5: ch3-7 (antibody, human IgG1, kappa, V domains shown)
VH: QSLEESGGRLVTPGTPLTLTCTVSGFSPSSYYMSWVRQAPGKGLEYIGIIFSGGSTWYASWAKGRVTISRTSTTVDLKMTSLTTEDTATYFCARGDAVGSGYWGLWGPGTLVTVSS
VL: AFELTQTPSSVEAAVGGTVTINCQASQDIYIYLAWYQQKPGQPPKLLIYSASTLASGVSSRFTGSRSGTQFTLTISDLEPADAATYYCQSYDGTSNTGFGGGTEVVVRR
notes: Chimeric rabbit/human IgG1; also called chimeric anti-NKp46 antibody ch3-7

binding result [6]: binds
B6: rabbit anti-NKp46 clone 3-7 (expressed and purified as rabbit IgG) (antibody, V domains shown)
VH: B5 VH
VL: AFELTQTPSSVEAAVGGTVTINCQASQDIYIYLAWYQQKPGQPPKLLIYSASTLASGVSSRFTGSRSGTQFTLTISDLEPADAATYYCQSYDGTSNTGFGGGTEVVVR
notes: Rabbit IgG

binding result [5]: binds
B7: ch5-13 (antibody, human IgG1, kappa, V domains shown)
VH: QSVEESGGRLVTPGTPLTLTCTVSGFSLSSYHMSWVRQAPGKGLEWIGYILANTDSYYANWAKGRFTISKTSTTVDLKITSPTTEDTATYFCARYDNHDAAYSTLWGPGTLVTVSS
VL: AYDMTQTPASVEVAVGGTVTIKCQASQSISTALAWYQQKPGQPPKLLIYKASTLASGVSSRFKGSGSGTQFTLTISGVEPADAATYYCQQGYSRSNVDNVFGGGTEVVVKR
notes: Chimeric rabbit/human IgG1; also called chimeric anti-NKp46 antibody ch5-13

binding result [6]: binds
B8: rabbit anti-NKp46 clone 5-13 (expressed and purified as rabbit IgG) (antibody, V domains shown)
VH: B7 VH
VL: AYDMTQTPASVEVAVGGTVTIKCQASQSISTALAWYQQKPGQPPKLLIYKASTLASGVSSRFKGSGSGTQFTLTISGVEPADAATYYCQQGYSRSNVDNVFGGGTEVVVK
notes: Rabbit IgG

binding result [3]: binds
binding result [4]: binds
B9: ch44G2/ch3-7 Fc-silenced (bispecific antibody, human IgG1, kappa, L234A L235A)
heavy: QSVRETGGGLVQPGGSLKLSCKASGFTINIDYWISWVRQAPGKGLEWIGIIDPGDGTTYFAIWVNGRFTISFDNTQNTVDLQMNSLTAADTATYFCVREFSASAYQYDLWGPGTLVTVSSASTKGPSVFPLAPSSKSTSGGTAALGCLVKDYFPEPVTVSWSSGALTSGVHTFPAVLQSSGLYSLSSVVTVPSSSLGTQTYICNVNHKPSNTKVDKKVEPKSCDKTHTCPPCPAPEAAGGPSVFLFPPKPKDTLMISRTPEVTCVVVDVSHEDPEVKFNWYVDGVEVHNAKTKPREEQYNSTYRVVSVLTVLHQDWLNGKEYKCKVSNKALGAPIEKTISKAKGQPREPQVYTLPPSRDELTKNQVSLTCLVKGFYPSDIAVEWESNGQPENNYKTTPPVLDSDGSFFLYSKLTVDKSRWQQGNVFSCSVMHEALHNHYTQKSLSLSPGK
light: DLVMTQTPSSVSAAVGGTVSINCRASEDIENYLAWYQQKPGQPPKLLIYRASTLSSGVSSRFSGSGSGTEFTLTISGVQPDDAATYYCQQGYRNSNVDNPFGGGTEMVVKRTVAAPSVFIFPPSDEQLKSGTASVVCLLNNFYPREAKVQWKVDNALQSGNSQESVTEQDSKDSTYSLSSTLTLSKADYEKHKVYACEVTHQGLSSPVTKSFNRGECGGGGSGGGGSGGGGSGGGGSAFELTQTPSSVEAAVGGTVTINCQASQDIYIYLAWYQQKPGQPPKLLIYSASTLASGVSSRFTGSRSGTQFTLTISDLEPADAATYYCQSYDGTSNTGFGGGTEVVVRGGGGSGGGGSGGGGSGGGGSQSLEESGGRLVTPGTPLTLTCTVSGFSPSSYYMSWVRQAPGKGLEYIGIIFSGGSTWYASWAKGRVTISRTSTTVDLKMTSLTTEDTATYFCARGDAVGSGYWGLWGPGTLVTVSS
notes: LC format: the NKp46 scFv (VL-GS-VH) is joined to the C terminus of the anti-CD79b light chain, with LALAPG silenced Fc; also called CD79b/NKp46 bispecific antibody; 44G2/3-7
